In patent publication US20210139548A1 (published 2021):
*1 amine or outer side, *2 acyl side, *3 side chain or, on linkers, in order; H or OH if unused. Side-chain parts run from the residue outwards. The star is where a group is joined. C18 diacid = O=C(O)CCCCCCCCCCCCCCCCC(=O)*; γGlu = O=C(O)[C@H](CCC(=O)[*:2])N[*:1]; Isovaleryl = CC(C)CC(=O)*; AEEA = NCCOCCOCC(=O)O

T1: human neuropeptide Y2 receptor (human, UniProt P49146 1-381)
T1 construct: whole, on cells; also called hNPY2 receptor; hNPY2-R
T1 sequence (looked up): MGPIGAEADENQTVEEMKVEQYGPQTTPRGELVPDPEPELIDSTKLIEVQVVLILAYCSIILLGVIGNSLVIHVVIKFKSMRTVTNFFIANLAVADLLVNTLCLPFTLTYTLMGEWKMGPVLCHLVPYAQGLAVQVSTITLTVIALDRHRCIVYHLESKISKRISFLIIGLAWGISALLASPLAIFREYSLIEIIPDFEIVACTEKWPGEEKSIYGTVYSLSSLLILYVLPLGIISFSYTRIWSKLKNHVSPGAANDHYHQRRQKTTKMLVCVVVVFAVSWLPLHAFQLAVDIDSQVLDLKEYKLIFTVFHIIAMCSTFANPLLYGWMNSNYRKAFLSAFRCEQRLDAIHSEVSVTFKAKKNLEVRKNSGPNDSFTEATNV

B1: Compound 86 (peptide)
peptide: Isovaleryl-APEK([AEEA-AEEA-γGlu-C18 diacid])PEADASPEELQRYEVSLRHYYNWLTRQRY-NH2
SMILES: CC(C)CC(=O)N[C@@H](C)C(=O)N1CCC[C@H]1C(=O)N[C@@H](CCC(=O)O)C(=O)N[C@@H](CCCCNC(=O)COCCOCCNC(=O)COCCOCCNC(=O)CC[C@H](NC(=O)CCCCCCCCCCCCCCCCC(=O)O)C(=O)O)C(=O)N1CCC[C@H]1C(=O)N[C@@H](CCC(=O)O)C(=O)N[C@@H](C)C(=O)N[C@@H](CC(=O)O)C(=O)N[C@@H](C)C(=O)N[C@@H](CO)C(=O)N1CCC[C@H]1C(=O)N[C@@H](CCC(=O)O)C(=O)N[C@@H](CCC(=O)O)C(=O)N[C@@H](CC(C)C)C(=O)N[C@@H](CCC(N)=O)C(=O)N[C@@H](CCCNC(=N)N)C(=O)N[C@@H](Cc1ccc(O)cc1)C(=O)N[C@@H](CCC(=O)O)C(=O)N[C@H](C(=O)N[C@@H](CO)C(=O)N[C@@H](CC(C)C)C(=O)N[C@@H](CCCNC(=N)N)C(=O)N[C@@H](Cc1c[nH]cn1)C(=O)N[C@@H](Cc1ccc(O)cc1)C(=O)N[C@@H](Cc1ccc(O)cc1)C(=O)N[C@@H](CC(N)=O)C(=O)N[C@@H](Cc1c[nH]c2ccccc12)C(=O)N[C@@H](CC(C)C)C(=O)N[C@H](C(=O)N[C@@H](CCCNC(=N)N)C(=O)N[C@@H](CCC(N)=O)C(=O)N[C@@H](CCCNC(=N)N)C(=O)N[C@@H](Cc1ccc(O)cc1)C(N)=O)[C@@H](C)O)C(C)C
B2: Compound 89 (peptide)
peptide: Isovaleryl-APEK([AEEA-AEEA-γGlu-C18 diacid])PEEEAEPEELQRYYVSLRHYYNWLTRQRY-NH2
SMILES: CC(C)CC(=O)N[C@@H](C)C(=O)N1CCC[C@H]1C(=O)N[C@@H](CCC(=O)O)C(=O)N[C@@H](CCCCNC(=O)COCCOCCNC(=O)COCCOCCNC(=O)CC[C@H](NC(=O)CCCCCCCCCCCCCCCCC(=O)O)C(=O)O)C(=O)N1CCC[C@H]1C(=O)N[C@@H](CCC(=O)O)C(=O)N[C@@H](CCC(=O)O)C(=O)N[C@@H](CCC(=O)O)C(=O)N[C@@H](C)C(=O)N[C@@H](CCC(=O)O)C(=O)N1CCC[C@H]1C(=O)N[C@@H](CCC(=O)O)C(=O)N[C@@H](CCC(=O)O)C(=O)N[C@@H](CC(C)C)C(=O)N[C@@H](CCC(N)=O)C(=O)N[C@@H](CCCNC(=N)N)C(=O)N[C@@H](Cc1ccc(O)cc1)C(=O)N[C@@H](Cc1ccc(O)cc1)C(=O)N[C@H](C(=O)N[C@@H](CO)C(=O)N[C@@H](CC(C)C)C(=O)N[C@@H](CCCNC(=N)N)C(=O)N[C@@H](Cc1c[nH]cn1)C(=O)N[C@@H](Cc1ccc(O)cc1)C(=O)N[C@@H](Cc1ccc(O)cc1)C(=O)N[C@@H](CC(N)=O)C(=O)N[C@@H](Cc1c[nH]c2ccccc12)C(=O)N[C@@H](CC(C)C)C(=O)N[C@H](C(=O)N[C@@H](CCCNC(=N)N)C(=O)N[C@@H](CCC(N)=O)C(=O)N[C@@H](CCCNC(=N)N)C(=O)N[C@@H](Cc1ccc(O)cc1)C(N)=O)[C@@H](C)O)C(C)C
B3: Compound 90 (peptide)
peptide: Isovaleryl-APEK([AEEA-AEEA-γGlu-C18 diacid])PEEDASPEELQRYEVSLRHYYNWLTRQRY-NH2
SMILES: CC(C)CC(=O)N[C@@H](C)C(=O)N1CCC[C@H]1C(=O)N[C@@H](CCC(=O)O)C(=O)N[C@@H](CCCCNC(=O)COCCOCCNC(=O)COCCOCCNC(=O)CC[C@H](NC(=O)CCCCCCCCCCCCCCCCC(=O)O)C(=O)O)C(=O)N1CCC[C@H]1C(=O)N[C@@H](CCC(=O)O)C(=O)N[C@@H](CCC(=O)O)C(=O)N[C@@H](CC(=O)O)C(=O)N[C@@H](C)C(=O)N[C@@H](CO)C(=O)N1CCC[C@H]1C(=O)N[C@@H](CCC(=O)O)C(=O)N[C@@H](CCC(=O)O)C(=O)N[C@@H](CC(C)C)C(=O)N[C@@H](CCC(N)=O)C(=O)N[C@@H](CCCNC(=N)N)C(=O)N[C@@H](Cc1ccc(O)cc1)C(=O)N[C@@H](CCC(=O)O)C(=O)N[C@H](C(=O)N[C@@H](CO)C(=O)N[C@@H](CC(C)C)C(=O)N[C@@H](CCCNC(=N)N)C(=O)N[C@@H](Cc1c[nH]cn1)C(=O)N[C@@H](Cc1ccc(O)cc1)C(=O)N[C@@H](Cc1ccc(O)cc1)C(=O)N[C@@H](CC(N)=O)C(=O)N[C@@H](Cc1c[nH]c2ccccc12)C(=O)N[C@@H](CC(C)C)C(=O)N[C@H](C(=O)N[C@@H](CCCNC(=N)N)C(=O)N[C@@H](CCC(N)=O)C(=O)N[C@@H](CCCNC(=N)N)C(=O)N[C@@H](Cc1ccc(O)cc1)C(N)=O)[C@@H](C)O)C(C)C
B4: Compound 87 (peptide)
peptide: Isovaleryl-APEK([AEEA-AEEA-γGlu-C18 diacid])PEEDSSPAELQRYYVSLRHYYNWLTRQRY-NH2
SMILES: CC(C)CC(=O)N[C@@H](C)C(=O)N1CCC[C@H]1C(=O)N[C@@H](CCC(=O)O)C(=O)N[C@@H](CCCCNC(=O)COCCOCCNC(=O)COCCOCCNC(=O)CC[C@H](NC(=O)CCCCCCCCCCCCCCCCC(=O)O)C(=O)O)C(=O)N1CCC[C@H]1C(=O)N[C@@H](CCC(=O)O)C(=O)N[C@@H](CCC(=O)O)C(=O)N[C@@H](CC(=O)O)C(=O)N[C@@H](CO)C(=O)N[C@@H](CO)C(=O)N1CCC[C@H]1C(=O)N[C@@H](C)C(=O)N[C@@H](CCC(=O)O)C(=O)N[C@@H](CC(C)C)C(=O)N[C@@H](CCC(N)=O)C(=O)N[C@@H](CCCNC(=N)N)C(=O)N[C@@H](Cc1ccc(O)cc1)C(=O)N[C@@H](Cc1ccc(O)cc1)C(=O)N[C@H](C(=O)N[C@@H](CO)C(=O)N[C@@H](CC(C)C)C(=O)N[C@@H](CCCNC(=N)N)C(=O)N[C@@H](Cc1c[nH]cn1)C(=O)N[C@@H](Cc1ccc(O)cc1)C(=O)N[C@@H](Cc1ccc(O)cc1)C(=O)N[C@@H](CC(N)=O)C(=O)N[C@@H](Cc1c[nH]c2ccccc12)C(=O)N[C@@H](CC(C)C)C(=O)N[C@H](C(=O)N[C@@H](CCCNC(=N)N)C(=O)N[C@@H](CCC(N)=O)C(=O)N[C@@H](CCCNC(=N)N)C(=O)N[C@@H](Cc1ccc(O)cc1)C(N)=O)[C@@H](C)O)C(C)C
B5: Compound 94 (peptide)
peptide: Isovaleryl-APEK([AEEA-AEEA-γGlu-C18 diacid])PEEDASPEETQRYYVELRHYYNWLTRQRY-NH2
SMILES: CC(C)CC(=O)N[C@@H](C)C(=O)N1CCC[C@H]1C(=O)N[C@@H](CCC(=O)O)C(=O)N[C@@H](CCCCNC(=O)COCCOCCNC(=O)COCCOCCNC(=O)CC[C@H](NC(=O)CCCCCCCCCCCCCCCCC(=O)O)C(=O)O)C(=O)N1CCC[C@H]1C(=O)N[C@@H](CCC(=O)O)C(=O)N[C@@H](CCC(=O)O)C(=O)N[C@@H](CC(=O)O)C(=O)N[C@@H](C)C(=O)N[C@@H](CO)C(=O)N1CCC[C@H]1C(=O)N[C@@H](CCC(=O)O)C(=O)N[C@@H](CCC(=O)O)C(=O)N[C@H](C(=O)N[C@@H](CCC(N)=O)C(=O)N[C@@H](CCCNC(=N)N)C(=O)N[C@@H](Cc1ccc(O)cc1)C(=O)N[C@@H](Cc1ccc(O)cc1)C(=O)N[C@H](C(=O)N[C@@H](CCC(=O)O)C(=O)N[C@@H](CC(C)C)C(=O)N[C@@H](CCCNC(=N)N)C(=O)N[C@@H](Cc1c[nH]cn1)C(=O)N[C@@H](Cc1ccc(O)cc1)C(=O)N[C@@H](Cc1ccc(O)cc1)C(=O)N[C@@H](CC(N)=O)C(=O)N[C@@H](Cc1c[nH]c2ccccc12)C(=O)N[C@@H](CC(C)C)C(=O)N[C@H](C(=O)N[C@@H](CCCNC(=N)N)C(=O)N[C@@H](CCC(N)=O)C(=O)N[C@@H](CCCNC(=N)N)C(=O)N[C@@H](Cc1ccc(O)cc1)C(N)=O)[C@@H](C)O)C(C)C)[C@@H](C)O
B6: Compound 92 (peptide)
peptide: Isovaleryl-APEK([AEEA-AEEA-γGlu-C18 diacid])PEEDTSPEELQRYYVSLRHYYNWLTRQRY-NH2
SMILES: CC(C)CC(=O)N[C@@H](C)C(=O)N1CCC[C@H]1C(=O)N[C@@H](CCC(=O)O)C(=O)N[C@@H](CCCCNC(=O)COCCOCCNC(=O)COCCOCCNC(=O)CC[C@H](NC(=O)CCCCCCCCCCCCCCCCC(=O)O)C(=O)O)C(=O)N1CCC[C@H]1C(=O)N[C@@H](CCC(=O)O)C(=O)N[C@@H](CCC(=O)O)C(=O)N[C@@H](CC(=O)O)C(=O)N[C@H](C(=O)N[C@@H](CO)C(=O)N1CCC[C@H]1C(=O)N[C@@H](CCC(=O)O)C(=O)N[C@@H](CCC(=O)O)C(=O)N[C@@H](CC(C)C)C(=O)N[C@@H](CCC(N)=O)C(=O)N[C@@H](CCCNC(=N)N)C(=O)N[C@@H](Cc1ccc(O)cc1)C(=O)N[C@@H](Cc1ccc(O)cc1)C(=O)N[C@H](C(=O)N[C@@H](CO)C(=O)N[C@@H](CC(C)C)C(=O)N[C@@H](CCCNC(=N)N)C(=O)N[C@@H](Cc1c[nH]cn1)C(=O)N[C@@H](Cc1ccc(O)cc1)C(=O)N[C@@H](Cc1ccc(O)cc1)C(=O)N[C@@H](CC(N)=O)C(=O)N[C@@H](Cc1c[nH]c2ccccc12)C(=O)N[C@@H](CC(C)C)C(=O)N[C@H](C(=O)N[C@@H](CCCNC(=N)N)C(=O)N[C@@H](CCC(N)=O)C(=O)N[C@@H](CCCNC(=N)N)C(=O)N[C@@H](Cc1ccc(O)cc1)C(N)=O)[C@@H](C)O)C(C)C)[C@@H](C)O

Molecular target: T1, human neuropeptide Y2 receptor
Assay: radioligand competition (125I-PYY(1-36)), hNPY2R membranes
Summary of the method: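 Commercial human Y2 receptor membranes (0.5 μg protein/well) were incubated with peptide for 2 h at room temperature in 50 mM HEPES, 5 mM MgCl₂, 1 mM CaCl₂, pH 7.4, with 0.2% ovalbumin. Bound radioligand was separated on PEI-soaked GF/C filters and counted by scintillation, and IC₅₀ came from nonlinear sigmoidal regression.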

Binder	Ki
B1	1.19 nM
B2	9.61 nM
B3	1.6 nM
B4	1.97 nM
B5	2.07 nM
B6	1.57 nM
